Five molecules from patent publication US20220107306A1 can be followed below.

For data set [1], the target named is Recombinant human HER2 protein (E27-11G-10/Signal Chem) (human) (UniProt P04626). Nature of the data set: sandwich ELISA: HER2 captured by antibody 6C2, detected with 0.67 nM antibody-coated PID-T particles, before lyophilizing.
The target is the same in data set [2]. The experiment in a line: sandwich ELISA: HER2 captured by antibody 6C2, detected with 0.67 nM antibody-coated PID-T particles, after lyophilizing. A general note: ELISA stands for enzyme-linked immunosorbent assay.
Data set [3] addresses Recombinant human PDL1 protein (BioVision/7429-50) (human) (UniProt Q9NZQ7). Nature of the data set: sandwich ELISA: PDL1 captured by antibody 28-8, detected with antibody-coated PID particles, before lyophilizing.
Data set [4] shares this target. The experiment in a line: sandwich ELISA: PDL1 captured by antibody 28-8, detected with antibody-coated PID particles, after lyophilizing.
Data set [5] relates to rabbit IgG (anti-PD-L1 rabbit monoclonal antibody clone SP142) (Oryctolagus cuniculus). As to conditions: 5' SH (reduced disulfide), coupled to maleimide-PEG nanoparticle; secondary staining of SP142 rabbit mAb on NCI-H446 section; 0.05 nM aptamer-nanoparticle, PBS 1% BSA, RT 3 h.

Sequence of UniProt Q9NZQ7 (Q9NZQ7 19-238 limits assumed): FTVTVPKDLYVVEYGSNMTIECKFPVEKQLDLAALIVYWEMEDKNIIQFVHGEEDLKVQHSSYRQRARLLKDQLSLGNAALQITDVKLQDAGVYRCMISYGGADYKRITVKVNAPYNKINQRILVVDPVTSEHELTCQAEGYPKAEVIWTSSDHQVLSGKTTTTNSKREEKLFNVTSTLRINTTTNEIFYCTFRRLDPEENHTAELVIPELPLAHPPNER

As for “anti-HER2-Fab antibody prepared from the anti-HER2-whole antibody (Abcam EP1045Y), bound to the surface of PID-T”, in data set [1], the Fluorescence intensity (PFU), before lyophilizing is 41000 PFU. Also, in data set [2], the Fluorescence intensity (PFU), after lyophilizing stood at 18000 PFU.

Turning to “anti-PDL1-recombinant antibody (clone E1L3N/Cell Signaling Technology), bound to the surface of PID-P”, in data set [3], the Fluorescence intensity (PFU), before lyophilizing was found to be 17000 PFU. In addition, in data set [4], the Fluorescence intensity (PFU), after lyophilizing worked out at 5500 PFU. As for “GGGAGAAUUCCGACCAGAAGUUCGAUACGCCGUGGGGUGACGUUGGCUACCCUUUCCUCUCUCCUCCUUCUUCU [rabbit IgG RNA aptamer (74 mer)]”, the binding (bright spots per cell) in data set [5] is 605.

Turning to “anti-HER2-whole antibody (Abcam, product code EP1045Y), bound to the surface of PID-T”, the Fluorescence intensity (PFU), before lyophilizing in data set [1] is 33000 PFU. The Fluorescence intensity (PFU), after lyophilizing in data set [2] was 15000 PFU.

B1: anti-HER2-VHH antibody (SH group-containing VHH antibody that recognizes HER2 antigen), bound to the surface of PID-T (VHH)
VHH: EVQLVESGGGLVQAGGSLRLSCAASGITFSINTMGWYRQAPGKQRELVALISSIGDTYYADSVKGRFTISRDNAKNTVYLQMNSLKPEDTAVYYCKRFRTAQGTDYWGQGTQVTVSS
modifications: C-terminal cysteine of the linker reduced with DTT to a free SH group and coupled to the maleimide group of TAMRA-encapsulating silica nanoparticles (PID-T)
As to B1, the Fluorescence intensity (PFU), before lyophilizing in data set [1] came to 51000 PFU. Besides, the Fluorescence intensity (PFU), after lyophilizing in data set [2] is 49000 PFU.
